Numbered stars: 1 amine (or outer) side, 2 acyl side, 3 side chain; on linkers, the order of the positions; unused ones are H or OH. Bridge positions count the residues as written; N and C are the ends. Side chains are listed from the residue outwards. Ends that are not written are not given here. * marks the point of attachment. C20 diacid = O=C(O)CCCCCCCCCCCCCCCCCCC(=O)*; γGlu = O=C(O)[C@H](CCC(=O)[*:2])N[*:1]

Data on 5 molecules can be found in patent publication US20140087995A1 (published 2014).

T1: rat calcitonin receptor (rat, UniProt P32214 25-516)
T1 construct: whole, on cells; Membranes of transiently transfected BHK tk'ts 13 cells (Assay VIII); also called rCTR
T1 sequence (looked up): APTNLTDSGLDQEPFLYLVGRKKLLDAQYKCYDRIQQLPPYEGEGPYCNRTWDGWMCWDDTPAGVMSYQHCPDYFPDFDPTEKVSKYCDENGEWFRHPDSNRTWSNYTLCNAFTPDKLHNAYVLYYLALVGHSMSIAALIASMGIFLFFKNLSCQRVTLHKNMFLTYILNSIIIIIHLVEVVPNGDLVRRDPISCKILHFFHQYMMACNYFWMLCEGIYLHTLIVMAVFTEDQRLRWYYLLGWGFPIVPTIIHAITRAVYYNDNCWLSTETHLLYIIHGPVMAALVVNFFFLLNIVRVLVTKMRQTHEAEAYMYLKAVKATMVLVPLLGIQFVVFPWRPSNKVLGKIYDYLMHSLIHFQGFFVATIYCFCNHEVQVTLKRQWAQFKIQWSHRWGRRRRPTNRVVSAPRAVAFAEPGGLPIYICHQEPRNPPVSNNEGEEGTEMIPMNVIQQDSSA

T2: human calcitonin receptor (human, UniProt P30988 25-474)
T2 construct: whole, on cells; Membranes of a stably transfected BHK cell line (Assay VII); also called hCTR; hCT
T2 sequence (looked up): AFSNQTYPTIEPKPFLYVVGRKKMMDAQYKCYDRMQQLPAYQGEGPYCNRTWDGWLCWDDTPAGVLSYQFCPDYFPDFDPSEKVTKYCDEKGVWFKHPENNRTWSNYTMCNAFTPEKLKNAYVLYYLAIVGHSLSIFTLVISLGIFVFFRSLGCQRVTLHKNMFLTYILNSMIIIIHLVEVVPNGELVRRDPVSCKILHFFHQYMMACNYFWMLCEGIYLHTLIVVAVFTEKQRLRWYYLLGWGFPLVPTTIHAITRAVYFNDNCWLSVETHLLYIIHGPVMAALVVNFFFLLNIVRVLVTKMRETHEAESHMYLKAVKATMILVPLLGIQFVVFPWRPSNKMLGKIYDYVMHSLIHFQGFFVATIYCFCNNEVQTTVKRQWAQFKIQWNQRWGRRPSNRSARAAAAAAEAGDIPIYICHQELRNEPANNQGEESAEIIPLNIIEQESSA

T3: rat amylin receptor (rat calcitonin receptor + rat RAMP 3) (rat, UniProt P32214 25-516; Q9JJ73 23-147)
T3 construct: whole, on cells; Membranes of transiently transfected BHK tk'ts 13 cells (Assay VI); also called rAmylin-R; rat amylin 3(a) receptor
T3 sequence (looked up) 1: T1 sequence (looked up)
T3 sequence (looked up) 2: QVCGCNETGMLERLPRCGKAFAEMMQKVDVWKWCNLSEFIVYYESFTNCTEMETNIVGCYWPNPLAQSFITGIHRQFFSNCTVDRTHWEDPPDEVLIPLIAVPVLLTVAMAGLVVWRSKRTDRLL

B1: N^ε1-[(4S)-4-carboxy-4-(19-carboxynonadecanoylamino)butanoyl]-[Glu14,Arg17,Pro21,Pro27,Pro34,His35]-h-amylin (peptide)
peptide: K([γGlu-C20 diacid])CNTATCATQRLAEFLRHSSPNFGAIPSSTNVGPHTY-NH2
modifications: disulfide 2-7
B2: N^ε1-[(4S)-4-carboxy-4-(19-carboxynonadecanoylamino)butanoyl]-[His14,Arg17,Pro21,Pro27,Arg34]-h-amylin (peptide)
peptide: K([γGlu-C20 diacid])CNTATCATQRLAHFLRHSSPNFGAIPSSTNVGRNTY-NH2
modifications: disulfide 2-7; N-terminus assumed
SMILES: CC[C@H](C)[C@H](NC(=O)[C@H](C)NC(=O)CNC(=O)[C@H](Cc1ccccc1)NC(=O)[C@H](CC(N)=O)NC(=O)[C@@H]1CCCN1C(=O)[C@H](CO)NC(=O)[C@H](CO)NC(=O)[C@H](Cc1c[nH]cn1)NC(=O)[C@H](CCCNC(=N)N)NC(=O)[C@H](CC(C)C)NC(=O)[C@H](Cc1ccccc1)NC(=O)[C@H](Cc1c[nH]cn1)NC(=O)[C@H](C)NC(=O)[C@H](CC(C)C)NC(=O)[C@H](CCCNC(=N)N)NC(=O)[C@H](CCC(N)=O)NC(=O)[C@@H](NC(=O)[C@H](C)NC(=O)[C@@H]1CSSC[C@H](NC(=O)[C@@H](N)CCCCNC(=O)CC[C@H](NC(=O)CCCCCCCCCCCCCCCCCCC(=O)O)C(=O)O)C(=O)N[C@@H](CC(N)=O)C(=O)N[C@@H]([C@@H](C)O)C(=O)N[C@@H](C)C(=O)N[C@@H]([C@@H](C)O)C(=O)N1)[C@@H](C)O)C(=O)N1CCC[C@H]1C(=O)N[C@@H](CO)C(=O)N[C@@H](CO)C(=O)N[C@H](C(=O)N[C@@H](CC(N)=O)C(=O)N[C@H](C(=O)NCC(=O)N[C@@H](CCCNC(=N)N)C(=O)N[C@@H](CC(N)=O)C(=O)N[C@H](C(=O)N[C@@H](Cc1ccc(O)cc1)C(N)=O)[C@@H](C)O)C(C)C)[C@@H](C)O
notes: also called compound 85
B3: N^ε1-[(4S)-4-carboxy-4-(19-carboxynonadecanoylamino)butanoyl]-[His14,Arg17,Pro21,Pro27,Pro34,Pro37]-h-amylin (peptide)
peptide: K([γGlu-C20 diacid])CNTATCATQRLAHFLRHSSPNFGAIPSSTNVGPNTP-NH2
modifications: disulfide 2-7; N-terminus assumed
SMILES: CC[C@H](C)[C@H](NC(=O)[C@H](C)NC(=O)CNC(=O)[C@H](Cc1ccccc1)NC(=O)[C@H](CC(N)=O)NC(=O)[C@@H]1CCCN1C(=O)[C@H](CO)NC(=O)[C@H](CO)NC(=O)[C@H](Cc1c[nH]cn1)NC(=O)[C@H](CCCNC(=N)N)NC(=O)[C@H](CC(C)C)NC(=O)[C@H](Cc1ccccc1)NC(=O)[C@H](Cc1c[nH]cn1)NC(=O)[C@H](C)NC(=O)[C@H](CC(C)C)NC(=O)[C@H](CCCNC(=N)N)NC(=O)[C@H](CCC(N)=O)NC(=O)[C@@H](NC(=O)[C@H](C)NC(=O)[C@@H]1CSSC[C@H](NC(=O)[C@@H](N)CCCCNC(=O)CC[C@H](NC(=O)CCCCCCCCCCCCCCCCCCC(=O)O)C(=O)O)C(=O)N[C@@H](CC(N)=O)C(=O)N[C@@H]([C@@H](C)O)C(=O)N[C@@H](C)C(=O)N[C@@H]([C@@H](C)O)C(=O)N1)[C@@H](C)O)C(=O)N1CCC[C@H]1C(=O)N[C@@H](CO)C(=O)N[C@@H](CO)C(=O)N[C@H](C(=O)N[C@@H](CC(N)=O)C(=O)N[C@H](C(=O)NCC(=O)N1CCC[C@H]1C(=O)N[C@@H](CC(N)=O)C(=O)N[C@H](C(=O)N1CCC[C@H]1C(N)=O)[C@@H](C)O)C(C)C)[C@@H](C)O
B4: N^ε1-[(4S)-4-carboxy-4-(19-carboxynonadecanoylamino)butanoyl]-[Glu14,Arg17,Pro21,Pro27,Pro34,Pro37]-h-amylin (peptide)
peptide: K([γGlu-C20 diacid])CNTATCATQRLAEFLRHSSPNFGAIPSSTNVGPNTP-NH2
modifications: disulfide 2-7; N-terminus assumed
SMILES: CC[C@H](C)[C@H](NC(=O)[C@H](C)NC(=O)CNC(=O)[C@H](Cc1ccccc1)NC(=O)[C@H](CC(N)=O)NC(=O)[C@@H]1CCCN1C(=O)[C@H](CO)NC(=O)[C@H](CO)NC(=O)[C@H](Cc1c[nH]cn1)NC(=O)[C@H](CCCNC(=N)N)NC(=O)[C@H](CC(C)C)NC(=O)[C@H](Cc1ccccc1)NC(=O)[C@H](CCC(=O)O)NC(=O)[C@H](C)NC(=O)[C@H](CC(C)C)NC(=O)[C@H](CCCNC(=N)N)NC(=O)[C@H](CCC(N)=O)NC(=O)[C@@H](NC(=O)[C@H](C)NC(=O)[C@@H]1CSSC[C@H](NC(=O)[C@@H](N)CCCCNC(=O)CC[C@H](NC(=O)CCCCCCCCCCCCCCCCCCC(=O)O)C(=O)O)C(=O)N[C@@H](CC(N)=O)C(=O)N[C@@H]([C@@H](C)O)C(=O)N[C@@H](C)C(=O)N[C@@H]([C@@H](C)O)C(=O)N1)[C@@H](C)O)C(=O)N1CCC[C@H]1C(=O)N[C@@H](CO)C(=O)N[C@@H](CO)C(=O)N[C@H](C(=O)N[C@@H](CC(N)=O)C(=O)N[C@H](C(=O)NCC(=O)N1CCC[C@H]1C(=O)N[C@@H](CC(N)=O)C(=O)N[C@H](C(=O)N1CCC[C@H]1C(N)=O)[C@@H](C)O)C(C)C)[C@@H](C)O
B5: N^ε1-[(4S)-4-carboxy-4-(19-carboxynonadecanoylamino)butanoyl]-[His14,Arg17,Pro21,Pro27,Pro31,Pro34]-h-amylin (peptide)
peptide: K([γGlu-C20 diacid])CNTATCATQRLAHFLRHSSPNFGAIPSSTPVGPNTY-NH2
modifications: disulfide 2-7; N-terminus assumed
SMILES: CC[C@H](C)[C@H](NC(=O)[C@H](C)NC(=O)CNC(=O)[C@H](Cc1ccccc1)NC(=O)[C@H](CC(N)=O)NC(=O)[C@@H]1CCCN1C(=O)[C@H](CO)NC(=O)[C@H](CO)NC(=O)[C@H](Cc1c[nH]cn1)NC(=O)[C@H](CCCNC(=N)N)NC(=O)[C@H](CC(C)C)NC(=O)[C@H](Cc1ccccc1)NC(=O)[C@H](Cc1c[nH]cn1)NC(=O)[C@H](C)NC(=O)[C@H](CC(C)C)NC(=O)[C@H](CCCNC(=N)N)NC(=O)[C@H](CCC(N)=O)NC(=O)[C@@H](NC(=O)[C@H](C)NC(=O)[C@@H]1CSSC[C@H](NC(=O)[C@@H](N)CCCCNC(=O)CC[C@H](NC(=O)CCCCCCCCCCCCCCCCCCC(=O)O)C(=O)O)C(=O)N[C@@H](CC(N)=O)C(=O)N[C@@H]([C@@H](C)O)C(=O)N[C@@H](C)C(=O)N[C@@H]([C@@H](C)O)C(=O)N1)[C@@H](C)O)C(=O)N1CCC[C@H]1C(=O)N[C@@H](CO)C(=O)N[C@@H](CO)C(=O)N[C@H](C(=O)N1CCC[C@H]1C(=O)N[C@H](C(=O)NCC(=O)N1CCC[C@H]1C(=O)N[C@@H](CC(N)=O)C(=O)N[C@H](C(=O)N[C@@H](Cc1ccc(O)cc1)C(N)=O)[C@@H](C)O)C(C)C)[C@@H](C)O

For the first test, the target named is T1, rat calcitonin receptor. Description: ratio IC50 rat calcitonin receptor / IC50 rat amylin receptor (reference).
With B1, the “Ratio rCT/rAmylin binding” value came to 52.2.
On to B2, for which the “Ratio rCT/rAmylin binding” value stood at 46.5.
For B3, the “Ratio rCT/rAmylin binding” value came out at 3.
For B4, the “Ratio rCT/rAmylin binding” value came out at 1.1.
Take B5: the “Ratio rCT/rAmylin binding” value was 72.4.

In the next test the target is T2, human calcitonin receptor. Description: ratio IC50 human calcitonin receptor / IC50 human amylin receptor (reference). Put shortly: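 Scintillation proximity competition binding on cell membranes at 35 ng/μL with SPA beads, in 50 mM Hepes pH 7.4, 1 mM CaCl2, 5 mM MgCl₂, 0.1% OA, 0.02% Tween20. Incubated 120 min at 25° C with shaking. IC₅₀ from one-site competition fit.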
Regarding B1, the “Ratio hCT/hAmylin binding” value stood at 21.2.
For B2, the “Ratio hCT/hAmylin binding” value stood at 91.8.
Take B3: the “Ratio hCT/hAmylin binding” value amounted to 1.2.
Regarding B4, the “Ratio hCT/hAmylin binding” value came to 0.5.
Regarding B5, the “Ratio hCT/hAmylin binding” value came to 24.8.

A further test has as its target T1, rat calcitonin receptor. Description: SPA competition with 125I-calcitonin, membranes of BHK cells with rat calcitonin receptor (Assay VIII).
Usually IC50 stands for the point on the concentration scale where inhibition reaches its midpoint. Consider B1, for which the IC50 was determined as 5.43 nM.
In the case of B2, the IC50 turned out to be 146 nM.
On to B3, for which the IC50 came out at 0.371 nM.
With B4, the IC50 worked out at 0.206 nM.
Regarding B5, the 50% inhibitory concentration (IC50) came out at 9.05 nM.

The next test has as its target T3, rat amylin receptor (rat calcitonin …). Kind of test: SPA competition with 125I-rat amylin, membranes of BHK cells with rat calcitonin receptor + rat RAMP3 (Assay VI).
Turning to B1, the IC50 amounted to 0.104 nM.
On the same count and under the same terms, in the case of B2 it was 3.14 nM.
For B3, the IC50 is 0.125 nM.
On the same count and under the same terms, the same measure for B4: 0.188 nM.
On to B5, for which the IC50 is 0.125 nM.
